Data on two molecules can be found in patent US11035003B2, “TRPC6 involved in glomerulonephritis” (Duke University, priority 2005, dated 2021).

The target in test [1] is T1, TRPC6^P112Q (Homo sapiens, UniProt Q9Y210, P112Q).
T1 construct: expressed in transfected cells; host or cells: HEK 293
T1 sequence (Q9Y210 1-931 P112Q): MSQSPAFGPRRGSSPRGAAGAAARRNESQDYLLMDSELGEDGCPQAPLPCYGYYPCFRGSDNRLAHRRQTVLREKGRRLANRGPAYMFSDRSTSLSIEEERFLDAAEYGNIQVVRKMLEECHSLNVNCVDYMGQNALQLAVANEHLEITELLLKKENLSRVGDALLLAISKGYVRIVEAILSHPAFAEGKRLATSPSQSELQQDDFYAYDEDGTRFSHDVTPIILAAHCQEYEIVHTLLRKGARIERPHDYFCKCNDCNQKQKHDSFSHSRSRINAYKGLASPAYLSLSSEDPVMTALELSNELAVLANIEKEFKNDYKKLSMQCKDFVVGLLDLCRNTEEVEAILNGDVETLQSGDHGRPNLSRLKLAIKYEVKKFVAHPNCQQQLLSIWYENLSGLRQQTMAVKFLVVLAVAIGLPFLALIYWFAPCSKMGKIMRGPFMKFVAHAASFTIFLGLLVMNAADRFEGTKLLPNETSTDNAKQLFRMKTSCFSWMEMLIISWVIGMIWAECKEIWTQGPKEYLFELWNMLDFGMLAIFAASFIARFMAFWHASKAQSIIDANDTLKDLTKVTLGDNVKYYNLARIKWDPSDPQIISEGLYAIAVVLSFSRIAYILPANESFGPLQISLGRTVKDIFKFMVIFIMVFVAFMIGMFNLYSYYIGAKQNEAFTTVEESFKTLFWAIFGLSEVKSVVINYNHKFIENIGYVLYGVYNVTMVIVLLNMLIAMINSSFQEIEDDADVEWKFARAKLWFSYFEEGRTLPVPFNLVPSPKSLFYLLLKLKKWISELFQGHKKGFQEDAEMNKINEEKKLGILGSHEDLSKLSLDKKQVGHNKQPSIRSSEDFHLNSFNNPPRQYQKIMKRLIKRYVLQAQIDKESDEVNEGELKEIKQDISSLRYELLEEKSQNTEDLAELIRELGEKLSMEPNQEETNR
In words: Fura-2 single cell imaging of divalent cations in HEK 293 cells transfected with TRPC6^P112Q. It counts as cell-based. The text has this:
(§1) To determine the effect of the P112Q mutation on TRPC6 function, we studied HEK 293 cells (human kidney cells) transfected with mutant (TRPC6^P112Q) or wild-type (WT) TRPC6 (14). The WT TRPC6 was cloned from a human kidney cDNA library. […] Diacylglycerol (DAG) is a potent activator of TRPC6 (15). We therefore measured the intracellular calcium concentration ([Ca^+2]i) using Fura fluorescence in HEK 293 cells expressing either the WT or TRPC6^P112Q after exposure to the DAG analogue OAG (1-oleoyl-2-acetyl-sn-glycerol). OAG perfusion increased late Ca^+2 transients in cells transfected with WT TRPC6 as expected (FIG. 3A and FIG. 7).
(§2) Angiotensin II acting through its AT1 receptor plays a critical role in the generation of proteinuria and progression of kidney injury in a number of kidney diseases including FSGS (16). AT1 receptors, coupled to heterotrimeric G nucleotide-binding proteins, activate phospholipase C-beta isoforms that hydrolyze phosphatidylinositol 4,5-bisphosphate (PIP2). This triggers production of inositol 1,4,5-trisphosphate (InsP3) and diacylglycerol (DAG) releases internal calcium stores and activates Ca^+2 entry, respectively (17). We examined whether the P112Q mutation would affect angiotensin II-dependent (i.e., receptor-operated) calcium signaling. HEK 293 cells were co-transfected with the AT1 angiotensin receptor (AT-YFP) and either WT TRPC6 or TRPC6^P112Q. [Ca^+2]i changes were measured after exposure to angiotensin II (FIG. 3B and FIG. 8); similar to the OAG experiments, the peak angiotensin II-stimulated [Ca^+2]i was higher in cells expressing the mutant protein compared with WT controls ([Ca^2+]i TRPC6^P112Q=640±66 nM vs. [Ca^2+]i WT TRPC6=357±46 nM; p<0.05). To establish that the P112Q mutation is not isolated to TRPC6 channels, we introduced the analogous mutation into the TRPC3 channel.
(§3) HEK 293 cells were plated on glass bottom plates at near confluence. After 24 hours, the cells were transfected with plasmids in the presence of lipofectamine 2000 (Invitrogen). Here 3 μg of TRPC6 plasmid (WT or mutant) and 1 μg of ATR-YFP plasmid were incubated for 4 hours in Optimem 2000 media (Gibco) and then changed to 10% FBS/DMEM media. For biotinylation experiments, 24 hours after transfection with TRPC6-V5 and TRPC6^P112Q-V5 constructs, cells were washed with ice cold PBS and incubated with sulfo-NHS-SS-Biotin (2 mg/ml) (Pierce) for 30-min at 4° C. After 3 washes with PBS with 10 mM glycine, cells were incubated with RIPA lysis buffer for 30-min at 4° C. Lysates were passed through a 20 G and then 25 G needle for 25 passes. Samples were then collected by centrifuging at 20K G for 15-min at 4° C. Supernatants were then incubated overnight with streptavidin agaraose beads (Pierce), washed 3 times and then heated to 37° C. […]

Test [2] addresses T2, WT TRPC6 (Homo sapiens, UniProt Q9Y210).
T2 construct: expressed in transfected cells; host or cells: HEK 293
T2 sequence (Q9Y210 1-931): T1 sequence (Q9Y210 1-931 P112Q) with Q112P
In words: Fura-2 single cell imaging of divalent cations in HEK 293 cells transfected with WT TRPC6. It counts as cell-based.
Source text: as §1, §2, §3

Changes are numbered by the printed parent chain.

For the molecule “angiotensin II: ligand acting through its AT1 receptor, used to stimulate receptor-operated calcium signaling (DRVYIHPF; Angiotensin-2; UniProt P01019 25-32, looked up)”, the “Peak angiotensin II-stimulated [Ca2+]i” value stood at 640 ± 66 nM in test [1] (HEK 293 cells co-transfected with AT1 receptor (AT-YFP) and TRPC6^P112Q, angiotensin II 1 μM); 357 ± 46 nM in test [2] (HEK 293 cells co-transfected with AT1 receptor (AT-YFP) and WT TRPC6, angiotensin II 1 μM). For the same molecule, the “Duration of angiotensin II-induced barium signal” value was determined as 1054 ± 282 s in test [1] (HEK 293 cells co-transfected with AT1 receptor and TRPC6^P112Q); 271 ± 121 s in test [2] (HEK 293 cells co-transfected with AT1 receptor and WT TRPC6).
Take `CCCCCCCC/C=C\CCCCCCCC(=O)OC[C@H](CO)OC(C)=O` [OAG, 1-oleoyl-2-acetyl-sn-glycerol]: in test [1] (HEK293 cells transfected with TRPC6P112Q, Fura-2, barium as surrogate for calcium), the “OAG-stimulated barium transients, 4340/380 ratio” value came to 1.30±0.7. Further, the “Peak intracellular calcium concentration [Ca2+]i after OAG perfusion” value in test [1] (HEK 293 cells transfected with TRPC6^P112Q, 100 μM OAG, Fura fluorescence) came to 181 ± 25 nM; in test [2] (HEK 293 cells transfected with WT TRPC6, 100 μM OAG, Fura fluorescence) it was 106 ± 15 nM. In addition, the “OAG-stimulated barium transients, ratio” value in test [2] (HEK293 cells transfected with WT TRPC6, Fura-2, barium as surrogate for calcium) turned out to be 0.49±0.18.
